According to patent publication US20140087995A1 (published 2014):
Residue numbers refer to the chain shown, from its start. Numbered stars: 1 amine (or outer) side, 2 acyl side, 3 side chain; on linkers, the order of the positions; unused ones are H or OH. Bridge positions count the residues as written; N and C are the ends. Side chains are listed from the residue outwards. Ends that are not written are not given here. * marks the point of attachment. C20 diacid = O=C(O)CCCCCCCCCCCCCCCCCCC(=O)*; γGlu = O=C(O)[C@H](CCC(=O)[*:2])N[*:1]

T1: human amylin receptor (human, UniProt P30988 25-474; O60896 24-148, limits assumed)
T1 construct: whole, on cells; Assay used cell membranes of the Amylin 3(a)/CRE-luc BHK cells; the complex is called the human amylin receptor; also called hAmylin-R; hAmylinR
T1 sequence (looked up) 1: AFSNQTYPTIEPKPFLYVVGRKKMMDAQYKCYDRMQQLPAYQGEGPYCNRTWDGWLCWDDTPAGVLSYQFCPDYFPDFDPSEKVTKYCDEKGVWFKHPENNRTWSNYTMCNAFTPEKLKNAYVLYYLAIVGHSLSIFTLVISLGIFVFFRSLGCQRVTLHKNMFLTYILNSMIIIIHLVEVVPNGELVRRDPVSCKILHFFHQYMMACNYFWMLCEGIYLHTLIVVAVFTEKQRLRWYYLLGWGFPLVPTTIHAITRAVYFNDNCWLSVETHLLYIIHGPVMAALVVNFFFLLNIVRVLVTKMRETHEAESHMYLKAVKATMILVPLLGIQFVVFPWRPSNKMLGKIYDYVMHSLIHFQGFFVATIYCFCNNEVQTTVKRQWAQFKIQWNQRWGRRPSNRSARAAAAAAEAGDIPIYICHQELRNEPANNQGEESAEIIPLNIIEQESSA
T1 sequence (looked up) 2: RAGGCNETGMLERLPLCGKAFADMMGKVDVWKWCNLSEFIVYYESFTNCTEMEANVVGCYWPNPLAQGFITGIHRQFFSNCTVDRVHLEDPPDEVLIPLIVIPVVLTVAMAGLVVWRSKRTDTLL

T2: human calcitonin receptor (human, UniProt P30988 25-474)
T2 construct: whole, on cells; Assay used cell membranes of the transfected BHK cells; also called hCTR; hCT
T2 sequence (looked up): T1 sequence (looked up) 1

T3: human calcitonin receptor (human, UniProt P30988 25-474)
T3 sequence (looked up): T1 sequence (looked up) 1

T4: human amylin receptor (amylin 3(a) receptor: human calcitonin receptor with RAMP-3) (human, UniProt P30988 25-474; O60896 24-148, limits assumed)
T4 sequence (looked up) 1: T1 sequence (looked up) 1
T4 sequence (looked up) 2: T1 sequence (looked up) 2

B1: N^α1-[2-[2-[2-[[2-[2-[2-[[(4S)-4-carboxy-4-(19-carboxynonadecanoylamino)butanoyl]amino]ethoxy]ethoxy]acetyl]amino]ethoxy]ethoxy]acetyl]-[Arg17,Pro21,Pro27]-h-am … (peptide)
peptide: KCNTATCATQRLANFLRHSSPNFGAIPSSTNVGSNTY
modifications: C20 diacid-gGlu-2xOEG on the alpha amino group of the N-terminal residue (Lys1); disulfide Cys2-Cys7; C-terminal amide
notes: Synthetic analogue; also called compound 24
B2: N^α1 N^α1-[(4S)-4-carboxy-4-[[(4S)-4-carboxy-4-(19-carboxynonadecanoylamino)butanoyl]amino]butanoyl]-[Glu14,Arg17,Pro21,Pro27]-h-amylin (peptide)
peptide: {C20 diacid-γGlu-γGlu}-KCNTATCATQRLAEFLRHSSPNFGAIPSSTNVGSNTY-NH2
modifications: disulfide 2-7
SMILES: CC[C@H](C)[C@H](NC(=O)[C@H](C)NC(=O)CNC(=O)[C@H](Cc1ccccc1)NC(=O)[C@H](CC(N)=O)NC(=O)[C@@H]1CCCN1C(=O)[C@H](CO)NC(=O)[C@H](CO)NC(=O)[C@H](Cc1c[nH]cn1)NC(=O)[C@H](CCCNC(=N)N)NC(=O)[C@H](CC(C)C)NC(=O)[C@H](Cc1ccccc1)NC(=O)[C@H](CCC(=O)O)NC(=O)[C@H](C)NC(=O)[C@H](CC(C)C)NC(=O)[C@H](CCCNC(=N)N)NC(=O)[C@H](CCC(N)=O)NC(=O)[C@@H](NC(=O)[C@H](C)NC(=O)[C@@H]1CSSC[C@H](NC(=O)[C@H](CCCCN)NC(=O)CC[C@H](NC(=O)CC[C@H](NC(=O)CCCCCCCCCCCCCCCCCCC(=O)O)C(=O)O)C(=O)O)C(=O)N[C@@H](CC(N)=O)C(=O)N[C@@H]([C@@H](C)O)C(=O)N[C@@H](C)C(=O)N[C@@H]([C@@H](C)O)C(=O)N1)[C@@H](C)O)C(=O)N1CCC[C@H]1C(=O)N[C@@H](CO)C(=O)N[C@@H](CO)C(=O)N[C@H](C(=O)N[C@@H](CC(N)=O)C(=O)N[C@H](C(=O)NCC(=O)N[C@@H](CO)C(=O)N[C@@H](CC(N)=O)C(=O)N[C@H](C(=O)N[C@@H](Cc1ccc(O)cc1)C(N)=O)[C@@H](C)O)C(C)C)[C@@H](C)O
notes: Synthetic analogue; also called compound 15
B3: N^ε1-[(4S)-4-carboxy-4-[[(4S)-4-carboxy-4-(19-carboxynonadecanoylamino)butanoyl]amino]butanoyl]-[Asp14,Arg17,Pro21,Pro27,Asp35]-h-amylin (peptide)
peptide: K([γGlu-γGlu-C20 diacid])CNTATCATQRLADFLRHSSPNFGAIPSSTNVGSDTY-NH2
modifications: disulfide 2-7; N-terminus assumed
SMILES: CC[C@H](C)[C@H](NC(=O)[C@H](C)NC(=O)CNC(=O)[C@H](Cc1ccccc1)NC(=O)[C@H](CC(N)=O)NC(=O)[C@@H]1CCCN1C(=O)[C@H](CO)NC(=O)[C@H](CO)NC(=O)[C@H](Cc1c[nH]cn1)NC(=O)[C@H](CCCNC(=N)N)NC(=O)[C@H](CC(C)C)NC(=O)[C@H](Cc1ccccc1)NC(=O)[C@H](CC(=O)O)NC(=O)[C@H](C)NC(=O)[C@H](CC(C)C)NC(=O)[C@H](CCCNC(=N)N)NC(=O)[C@H](CCC(N)=O)NC(=O)[C@@H](NC(=O)[C@H](C)NC(=O)[C@@H]1CSSC[C@H](NC(=O)[C@@H](N)CCCCNC(=O)CC[C@H](NC(=O)CC[C@H](NC(=O)CCCCCCCCCCCCCCCCCCC(=O)O)C(=O)O)C(=O)O)C(=O)N[C@@H](CC(N)=O)C(=O)N[C@@H]([C@@H](C)O)C(=O)N[C@@H](C)C(=O)N[C@@H]([C@@H](C)O)C(=O)N1)[C@@H](C)O)C(=O)N1CCC[C@H]1C(=O)N[C@@H](CO)C(=O)N[C@@H](CO)C(=O)N[C@H](C(=O)N[C@@H](CC(N)=O)C(=O)N[C@H](C(=O)NCC(=O)N[C@@H](CO)C(=O)N[C@@H](CC(=O)O)C(=O)N[C@H](C(=O)N[C@@H](Cc1ccc(O)cc1)C(N)=O)[C@@H](C)O)C(C)C)[C@@H](C)O
notes: Synthetic analogue; also called compound 2
B4: N^α1-[(4S)-4-carboxy-4-(19-carboxynonadecanoylamino)butanoyl]-[Arg17,Pro21,Pro27,Lys35]-h-amylin (peptide)
peptide: B1 peptide with N35K
modifications: C20 diacid-gGlu on the alpha amino group of the N-terminal residue (Lys1); disulfide Cys2-Cys7; C-terminal amide
notes: Synthetic analogue; also called compound 34
B5: N^ε1-[(4S)-4-carboxy-4-[[(4S)-4-carboxy-4-(19-carboxynonadecanoylamino)butanoyl]amino]butanoyl]-[Glu14,Arg17,Pro21,Pro27,Arg34]-h-amylin (peptide)
peptide: K([γGlu-γGlu-C20 diacid])CNTATCATQRLAEFLRHSSPNFGAIPSSTNVGRNTY-NH2
modifications: disulfide 2-7; N-terminus assumed
SMILES: CC[C@H](C)[C@H](NC(=O)[C@H](C)NC(=O)CNC(=O)[C@H](Cc1ccccc1)NC(=O)[C@H](CC(N)=O)NC(=O)[C@@H]1CCCN1C(=O)[C@H](CO)NC(=O)[C@H](CO)NC(=O)[C@H](Cc1c[nH]cn1)NC(=O)[C@H](CCCNC(=N)N)NC(=O)[C@H](CC(C)C)NC(=O)[C@H](Cc1ccccc1)NC(=O)[C@H](CCC(=O)O)NC(=O)[C@H](C)NC(=O)[C@H](CC(C)C)NC(=O)[C@H](CCCNC(=N)N)NC(=O)[C@H](CCC(N)=O)NC(=O)[C@@H](NC(=O)[C@H](C)NC(=O)[C@@H]1CSSC[C@H](NC(=O)[C@@H](N)CCCCNC(=O)CC[C@H](NC(=O)CC[C@H](NC(=O)CCCCCCCCCCCCCCCCCCC(=O)O)C(=O)O)C(=O)O)C(=O)N[C@@H](CC(N)=O)C(=O)N[C@@H]([C@@H](C)O)C(=O)N[C@@H](C)C(=O)N[C@@H]([C@@H](C)O)C(=O)N1)[C@@H](C)O)C(=O)N1CCC[C@H]1C(=O)N[C@@H](CO)C(=O)N[C@@H](CO)C(=O)N[C@H](C(=O)N[C@@H](CC(N)=O)C(=O)N[C@H](C(=O)NCC(=O)N[C@@H](CCCNC(=N)N)C(=O)N[C@@H](CC(N)=O)C(=O)N[C@H](C(=O)N[C@@H](Cc1ccc(O)cc1)C(N)=O)[C@@H](C)O)C(C)C)[C@@H](C)O
notes: also called compound 88
B6: N^ε1-[(4S)-4-carboxy-4-[[(4S)-4-carboxy-4-(19-carboxynonadecanoylamino)butanoyl]amino]butanoyl]-[Glu14,Arg17,Pro21,Pro27,His34]-h-amylin (peptide)
peptide: K([γGlu-γGlu-C20 diacid])CNTATCATQRLAEFLRHSSPNFGAIPSSTNVGHNTY-NH2
modifications: disulfide 2-7; N-terminus assumed
SMILES: CC[C@H](C)[C@H](NC(=O)[C@H](C)NC(=O)CNC(=O)[C@H](Cc1ccccc1)NC(=O)[C@H](CC(N)=O)NC(=O)[C@@H]1CCCN1C(=O)[C@H](CO)NC(=O)[C@H](CO)NC(=O)[C@H](Cc1c[nH]cn1)NC(=O)[C@H](CCCNC(=N)N)NC(=O)[C@H](CC(C)C)NC(=O)[C@H](Cc1ccccc1)NC(=O)[C@H](CCC(=O)O)NC(=O)[C@H](C)NC(=O)[C@H](CC(C)C)NC(=O)[C@H](CCCNC(=N)N)NC(=O)[C@H](CCC(N)=O)NC(=O)[C@@H](NC(=O)[C@H](C)NC(=O)[C@@H]1CSSC[C@H](NC(=O)[C@@H](N)CCCCNC(=O)CC[C@H](NC(=O)CC[C@H](NC(=O)CCCCCCCCCCCCCCCCCCC(=O)O)C(=O)O)C(=O)O)C(=O)N[C@@H](CC(N)=O)C(=O)N[C@@H]([C@@H](C)O)C(=O)N[C@@H](C)C(=O)N[C@@H]([C@@H](C)O)C(=O)N1)[C@@H](C)O)C(=O)N1CCC[C@H]1C(=O)N[C@@H](CO)C(=O)N[C@@H](CO)C(=O)N[C@H](C(=O)N[C@@H](CC(N)=O)C(=O)N[C@H](C(=O)NCC(=O)N[C@@H](Cc1c[nH]cn1)C(=O)N[C@@H](CC(N)=O)C(=O)N[C@H](C(=O)N[C@@H](Cc1ccc(O)cc1)C(N)=O)[C@@H](C)O)C(C)C)[C@@H](C)O
notes: also called compound 87

Each binder was assayed against T1, human amylin receptor (assay: SPA radioligand competition (125I-rat amylin), membranes of BHK cells with human calcitonin receptor + RAMP-3).
Protocol: The binding assay was performed using scintillation proximity assay (SPA) beads (RPNQ0001) from PerkinElmer and cell membranes from the Amylin 3(a)/CRE-luc cells (as described in Assay (II)) were used. Membranes were prepared in the following way; the cells were rinsed with PBS and incubated with Versene for approximately 5 min before harvesting. The cells were flushed with PBS and the cell-suspension was centrifuged for 5 min at 1000 rpm. Cells were homogenized (ultrathurrax) in a buffer containing 20 mM Na-HEPES and 10 mM EDTA (pH 7.4) and centrifuged at 20.000 rpm for 15 min. The resulting pellet was resuspended, homogenized and centrifuged (20.000 rpm, 15 min) in a buffer containing 20 mM Na-HEPES and 0.1 mM EDTA (pH 7.4, buffer 2). The resulting pellet was resuspended in buffer 2 and protein concentration was measured (BCA protein Assay, Pierce). The homogenate was kept cold during the whole procedure. The membranes were kept at −80° C. until use. The assay was performed in a 384 well Optiplate (PerkinElmer) in a total volume of 40 ul. Membranes were mixed with SPA beads. Final concentration of membranes 35 ng/μL final and SPA beads was 0.05 mg/well. Test-compounds were dissolved in DMSO and further diluted in assay buffer (50 mM Hepes, pH 7.4, 1 mM CaCl2, 5 mM MgCl₂, 0.1% OA and 0.02% Tween20). […] The final mixture was incubated with shaking at 400 rpm for 120 min at 25° C. prior to centrifugation (1500 rpm, 10 min). Samples were analyzed on TopCounter™ (Packard). The IC₅₀ was calculated using (one site binding competition analysis) GraphPad Prism5 as a measure of receptor affinity.

Row | IC50 | Binder
1 | 1.14 nM | B1
2 | 0.597 nM | B2
3 | 0.411 nM | B3
4 | 1.14 nM | B4

The binders below were run against T2, human calcitonin receptor (assay: ratio IC50 hCTR / IC50 hAmylin-R of the two SPA competition assays; reference: human amylin receptor).
How it was run: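 Competition binding by SPA with cell membranes (35 ng/μL) and SPA beads in 50 mM Hepes pH 7.4 with 1 mM CaCl2, 5 mM MgCl2, 0.1% OA and 0.02% Tween20. Incubated 120 min at 25 °C with shaking, then counted.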

Row | Ratio hCT/hAmylin binding | Binder
5 | 90 | B1
6 | 26 | B2
7 | 47.5 | B3
8 | 64.4 | B4

These binders were tested against T3, human calcitonin receptor (assay: cell-based or functional assay).

Row | Ratio hCT/hAmylin funct. | Binder
9 | 8.5 ratio | B5
10 | 3.8 ratio | B6

What follows are binders tested against T4, human amylin receptor (amylin 3(a) …) (assay: cell-based or functional assay).

Row | hAmylin-R funct. EC50 (pM) | Binder
11 | 773 pM | B5
12 | 285 pM | B6

Each binder was assayed against T2, human calcitonin receptor (assay: SPA radioligand competition (125I-calcitonin), membranes of BHK cells with human calcitonin receptor).
How it was run: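 BHK hCTR membranes 35 ng/μL + SPA beads 0.05 mg/well; buffer 50 mM Hepes pH 7.4, 1 mM CaCl2, 5 mM MgCl₂, 0.1% OA, 0.02% Tween20. 120 min, 25° C., shaking. Scintillation count; IC50 by one-site binding competition.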

Row | IC50 | Binder
13 | 102 nM | B1
14 | 15.5 nM | B2
15 | 19.5 nM | B3
16 | 73.4 nM | B4
